Target: the molecule itself
Assay: SDS-PAGE under nonreducing and reducing conditions with Western blot

B1: murine TSP2 secreted by dermal fibroblasts (conditioned medium) (natural protein)
chain: not shown
stoichiometry N: 3

Reference: article PMC117612 (Molecular Biology of the Cell, 2002)
